Results reported in patent US20170355766A1 (Xencor, published 2017).

T1: FcγRIIaR (human, UniProt P12318)
T1 construct: recombinant receptor protein with 6xHis and GST tags; also called R131 FcγRIIa
T1 sequence (receptor, looked up): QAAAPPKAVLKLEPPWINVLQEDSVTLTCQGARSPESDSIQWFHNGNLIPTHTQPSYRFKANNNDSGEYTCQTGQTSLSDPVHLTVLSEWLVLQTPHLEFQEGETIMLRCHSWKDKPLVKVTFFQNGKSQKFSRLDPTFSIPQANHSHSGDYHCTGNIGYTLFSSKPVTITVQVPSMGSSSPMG

T2: human FcγRIIb receptor protein (R&D Systems) (human, UniProt P31994 46-217)
T2 construct: Analyte injected over antibodies captured on a protein A/G chip (Biacore); also called CD32b
T2 sequence (looked up): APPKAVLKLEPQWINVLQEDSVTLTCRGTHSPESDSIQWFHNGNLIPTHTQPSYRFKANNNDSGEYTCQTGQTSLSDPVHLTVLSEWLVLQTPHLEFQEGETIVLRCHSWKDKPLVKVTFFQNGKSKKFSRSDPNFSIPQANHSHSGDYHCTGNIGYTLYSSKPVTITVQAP


Legend:
FcγRIIaR = molecular target: T1, FcγRIIaR; test: SPR (Biacore)
[1] = molecular target: T2, human FcγRIIb receptor protein (R&D …); test: SPR (Biacore)

Binder	Fold FcγRIIaR (FcγRIIaR) [fold]	Fold FcγRIIb [1] [fold]
A327G (antibody, human IgG1, kappa, HuAM4G7 IgG1 Fc variant) heavy: not shown light: DIVMTQSPATLSLSPGERATLSCRSSKSLQNVNGNTYLYWFQQKPGQSPQLLIYRMSNLNSGVPDRFSGSGSGTEFTLTISSLEPEDFAVYYCMQHLEYPITFGAGTKLEIKRTVAAPSVFIFPPSDEQLKSGTASVVCLLNNFYPREAKVQWKVDNALQSGNSQESVTEQDSKDSTYSLSSTLTLSKADYEKHKVYACEVTHQGLSSPVTKSFNRGEC	0.319	0.353
S267A/H268D/L328Y (antibody, human IgG1, kappa, HuAM4G7 IgG1 Fc variant) heavy: EVQLVESGGGLVKPGGSLKLSCAASGYTFTSYVMHWVRQAPGKGLEWIGYINPYNDGTKYNEKFQGRVTISSDKSISTAYMELSSLRSEDTAMYYCARGTYYYGTRVFDYWGQGTLVTVSSASTKGPSVFPLAPSSKSTSGGTAALGCLVKDYFPEPVTVSWNSGALTSGVHTFPAVLQSSGLYSLSSVVTVPSSSLGTQTYICNVNHKPSNTKVDKKVEPKSCDKTHTCPPCPAPELLGGPSVFLFPPKPKDTLMISRTPEVTCVVVDVADEDPEVKFNWYVDGVEVHNAKTKPREEQYNSTYRVVSVLTVLHQDWLNGKEYKCKVSNKAYPAPIEKTISKAKGQPREPQVYTLPPSREEMTKNQVSLTCLVKGFYPSDIAVEWESNGQPENNYKTTPPVLDSDGSFFLYSKLTVDKSRWQQGNVFSCSVMHEALHNHYTQKSLSLSPGK light: DIVMTQSPATLSLSPGERATLSCRSSKSLQNVNGNTYLYWFQQKPGQSPQLLIYRMSNLNSGVPDRFSGSGSGTEFTLTISSLEPEDFAVYYCMQHLEYPITFGAGTKLEIKRTVAAPSVFIFPPSDEQLKSGTASVVCLLNNFYPREAKVQWKVDNALQSGNSQESVTEQDSKDSTYSLSSTLTLSKADYEKHKVYACEVTHQGLSSPVTKSFNRGEC		10.7
S239D/S267E/I332E (antibody, human IgG1, kappa, HuAM4G7 IgG1 Fc variant) heavy: EVQLVESGGGLVKPGGSLKLSCAASGYTFTSYVMHWVRQAPGKGLEWIGYINPYNDGTKYNEKFQGRVTISSDKSISTAYMELSSLRSEDTAMYYCARGTYYYGTRVFDYWGQGTLVTVSSASTKGPSVFPLAPSSKSTSGGTAALGCLVKDYFPEPVTVSWNSGALTSGVHTFPAVLQSSGLYSLSSVVTVPSSSLGTQTYICNVNHKPSNTKVDKKVEPKSCDKTHTCPPCPAPELLGGPDVFLFPPKPKDTLMISRTPEVTCVVVDVEHEDPEVKFNWYVDGVEVHNAKTKPREEQYNSTYRVVSVLTVLHQDWLNGKEYKCKVSNKALPAPEEKTISKAKGQPREPQVYTLPPSREEMTKNQVSLTCLVKGFYPSDIAVEWESNGQPENNYKTTPPVLDSDGSFFLYSKLTVDKSRWQQGNVFSCSVMHEALHNHYTQKSLSLSPGK light: DIVMTQSPATLSLSPGERATLSCRSSKSLQNVNGNTYLYWFQQKPGQSPQLLIYRMSNLNSGVPDRFSGSGSGTEFTLTISSLEPEDFAVYYCMQHLEYPITFGAGTKLEIKRTVAAPSVFIFPPSDEQLKSGTASVVCLLNNFYPREAKVQWKVDNALQSGNSQESVTEQDSKDSTYSLSSTLTLSKADYEKHKVYACEVTHQGLSSPVTKSFNRGEC		124
S267E/H268D (antibody, human IgG1, kappa, HuAM4G7 IgG1 Fc variant) heavy: not shown light: DIVMTQSPATLSLSPGERATLSCRSSKSLQNVNGNTYLYWFQQKPGQSPQLLIYRMSNLNSGVPDRFSGSGSGTEFTLTISSLEPEDFAVYYCMQHLEYPITFGAGTKLEIKRTVAAPSVFIFPPSDEQLKSGTASVVCLLNNFYPREAKVQWKVDNALQSGNSQESVTEQDSKDSTYSLSSTLTLSKADYEKHKVYACEVTHQGLSSPVTKSFNRGEC		33.3
A327Q (antibody, human IgG1, kappa, HuAM4G7 IgG1 Fc variant) heavy: not shown light: DIVMTQSPATLSLSPGERATLSCRSSKSLQNVNGNTYLYWFQQKPGQSPQLLIYRMSNLNSGVPDRFSGSGSGTEFTLTISSLEPEDFAVYYCMQHLEYPITFGAGTKLEIKRTVAAPSVFIFPPSDEQLKSGTASVVCLLNNFYPREAKVQWKVDNALQSGNSQESVTEQDSKDSTYSLSSTLTLSKADYEKHKVYACEVTHQGLSSPVTKSFNRGEC	0.634	0.011
H268Q (antibody, human IgG1, kappa, HuAM4G7 IgG1 Fc variant) heavy: not shown light: DIVMTQSPATLSLSPGERATLSCRSSKSLQNVNGNTYLYWFQQKPGQSPQLLIYRMSNLNSGVPDRFSGSGSGTEFTLTISSLEPEDFAVYYCMQHLEYPITFGAGTKLEIKRTVAAPSVFIFPPSDEQLKSGTASVVCLLNNFYPREAKVQWKVDNALQSGNSQESVTEQDSKDSTYSLSSTLTLSKADYEKHKVYACEVTHQGLSSPVTKSFNRGEC	1.58	
S267D/H268E (antibody, human IgG1, kappa, HuAM4G7 IgG1 Fc variant) heavy: not shown light: DIVMTQSPATLSLSPGERATLSCRSSKSLQNVNGNTYLYWFQQKPGQSPQLLIYRMSNLNSGVPDRFSGSGSGTEFTLTISSLEPEDFAVYYCMQHLEYPITFGAGTKLEIKRTVAAPSVFIFPPSDEQLKSGTASVVCLLNNFYPREAKVQWKVDNALQSGNSQESVTEQDSKDSTYSLSSTLTLSKADYEKHKVYACEVTHQGLSSPVTKSFNRGEC		17.8
L235N (antibody, human IgG1, kappa, HuAM4G7 IgG1 Fc variant) heavy: not shown light: DIVMTQSPATLSLSPGERATLSCRSSKSLQNVNGNTYLYWFQQKPGQSPQLLIYRMSNLNSGVPDRFSGSGSGTEFTLTISSLEPEDFAVYYCMQHLEYPITFGAGTKLEIKRTVAAPSVFIFPPSDEQLKSGTASVVCLLNNFYPREAKVQWKVDNALQSGNSQESVTEQDSKDSTYSLSSTLTLSKADYEKHKVYACEVTHQGLSSPVTKSFNRGEC	0.0356	
S267D/A327D (antibody, human IgG1, kappa, HuAM4G7 IgG1 Fc variant) heavy: not shown light: DIVMTQSPATLSLSPGERATLSCRSSKSLQNVNGNTYLYWFQQKPGQSPQLLIYRMSNLNSGVPDRFSGSGSGTEFTLTISSLEPEDFAVYYCMQHLEYPITFGAGTKLEIKRTVAAPSVFIFPPSDEQLKSGTASVVCLLNNFYPREAKVQWKVDNALQSGNSQESVTEQDSKDSTYSLSSTLTLSKADYEKHKVYACEVTHQGLSSPVTKSFNRGEC		6.89
S267A/L328Y/I332E (antibody, human IgG1, kappa, HuAM4G7 IgG1 Fc variant) heavy: EVQLVESGGGLVKPGGSLKLSCAASGYTFTSYVMHWVRQAPGKGLEWIGYINPYNDGTKYNEKFQGRVTISSDKSISTAYMELSSLRSEDTAMYYCARGTYYYGTRVFDYWGQGTLVTVSSASTKGPSVFPLAPSSKSTSGGTAALGCLVKDYFPEPVTVSWNSGALTSGVHTFPAVLQSSGLYSLSSVVTVPSSSLGTQTYICNVNHKPSNTKVDKKVEPKSCDKTHTCPPCPAPELLGGPSVFLFPPKPKDTLMISRTPEVTCVVVDVAHEDPEVKFNWYVDGVEVHNAKTKPREEQYNSTYRVVSVLTVLHQDWLNGKEYKCKVSNKAYPAPEEKTISKAKGQPREPQVYTLPPSREEMTKNQVSLTCLVKGFYPSDIAVEWESNGQPENNYKTTPPVLDSDGSFFLYSKLTVDKSRWQQGNVFSCSVMHEALHNHYTQKSLSLSPGK light: DIVMTQSPATLSLSPGERATLSCRSSKSLQNVNGNTYLYWFQQKPGQSPQLLIYRMSNLNSGVPDRFSGSGSGTEFTLTISSLEPEDFAVYYCMQHLEYPITFGAGTKLEIKRTVAAPSVFIFPPSDEQLKSGTASVVCLLNNFYPREAKVQWKVDNALQSGNSQESVTEQDSKDSTYSLSSTLTLSKADYEKHKVYACEVTHQGLSSPVTKSFNRGEC		13.5
S267D/H268D (antibody, human IgG1, kappa, HuAM4G7 IgG1 Fc variant) heavy: not shown light: DIVMTQSPATLSLSPGERATLSCRSSKSLQNVNGNTYLYWFQQKPGQSPQLLIYRMSNLNSGVPDRFSGSGSGTEFTLTISSLEPEDFAVYYCMQHLEYPITFGAGTKLEIKRTVAAPSVFIFPPSDEQLKSGTASVVCLLNNFYPREAKVQWKVDNALQSGNSQESVTEQDSKDSTYSLSSTLTLSKADYEKHKVYACEVTHQGLSSPVTKSFNRGEC		14.2
S267D/A327E (antibody, human IgG1, kappa, HuAM4G7 IgG1 Fc variant) heavy: not shown light: DIVMTQSPATLSLSPGERATLSCRSSKSLQNVNGNTYLYWFQQKPGQSPQLLIYRMSNLNSGVPDRFSGSGSGTEFTLTISSLEPEDFAVYYCMQHLEYPITFGAGTKLEIKRTVAAPSVFIFPPSDEQLKSGTASVVCLLNNFYPREAKVQWKVDNALQSGNSQESVTEQDSKDSTYSLSSTLTLSKADYEKHKVYACEVTHQGLSSPVTKSFNRGEC		12.1
S267E/L328Q (antibody, human IgG1, kappa, HuAM4G7 IgG1 Fc variant) heavy: not shown light: DIVMTQSPATLSLSPGERATLSCRSSKSLQNVNGNTYLYWFQQKPGQSPQLLIYRMSNLNSGVPDRFSGSGSGTEFTLTISSLEPEDFAVYYCMQHLEYPITFGAGTKLEIKRTVAAPSVFIFPPSDEQLKSGTASVVCLLNNFYPREAKVQWKVDNALQSGNSQESVTEQDSKDSTYSLSSTLTLSKADYEKHKVYACEVTHQGLSSPVTKSFNRGEC		12.1
L235Q (antibody, human IgG1, kappa, HuAM4G7 IgG1 Fc variant) heavy: not shown light: DIVMTQSPATLSLSPGERATLSCRSSKSLQNVNGNTYLYWFQQKPGQSPQLLIYRMSNLNSGVPDRFSGSGSGTEFTLTISSLEPEDFAVYYCMQHLEYPITFGAGTKLEIKRTVAAPSVFIFPPSDEQLKSGTASVVCLLNNFYPREAKVQWKVDNALQSGNSQESVTEQDSKDSTYSLSSTLTLSKADYEKHKVYACEVTHQGLSSPVTKSFNRGEC	2.04	
G236V (antibody, human IgG1, kappa, HuAM4G7 IgG1 Fc variant) heavy: not shown light: DIVMTQSPATLSLSPGERATLSCRSSKSLQNVNGNTYLYWFQQKPGQSPQLLIYRMSNLNSGVPDRFSGSGSGTEFTLTISSLEPEDFAVYYCMQHLEYPITFGAGTKLEIKRTVAAPSVFIFPPSDEQLKSGTASVVCLLNNFYPREAKVQWKVDNALQSGNSQESVTEQDSKDSTYSLSSTLTLSKADYEKHKVYACEVTHQGLSSPVTKSFNRGEC	0.106	
L235P (antibody, human IgG1, kappa, HuAM4G7 IgG1 Fc variant) heavy: not shown light: DIVMTQSPATLSLSPGERATLSCRSSKSLQNVNGNTYLYWFQQKPGQSPQLLIYRMSNLNSGVPDRFSGSGSGTEFTLTISSLEPEDFAVYYCMQHLEYPITFGAGTKLEIKRTVAAPSVFIFPPSDEQLKSGTASVVCLLNNFYPREAKVQWKVDNALQSGNSQESVTEQDSKDSTYSLSSTLTLSKADYEKHKVYACEVTHQGLSSPVTKSFNRGEC	0.122	
